Paper PMC8073056

Target: purified full-length Arpin (N-terminal 6xHis-tagged) (human) (UniProt Q7Z6K5)
Experiment: SEC-MALS; purified Arpin and purified ARC4 of TNKS2 mixed; 15-mL KW-803 column (Shodex), dn/dc 0.183 mL/g

stoichiometry N: 1
Substance: ARC4 of TNKS2 (purified)
